Measured values reported in PMC7063977, “Improving the Thermostability of Rhizopus chinensis Lipase Through Site-Directed Mutagenesis Based on B-Factor Analysis” (Frontiers in Microbiology, 2020).

What was measured:
[1] = tested on: CCCCCCCCCCCCCCCC(=O)Oc1ccc([N+](=O)[O-])cc1; test: p-nitrophenol release, Lineweaver-Burk; assay type: biochemical, Rhizopus microsporus; details: Tris-HCl pH 9, 37 °C, substrate 4-PNN [sic], 4-NPP in materials, apparent Km
From the text: (§1) p-nitrophenol release, Lineweaver-Burk on Lipr27RCL

[2] = substrate: CCCCCCCCCCCCCCCC(=O)Oc1ccc([N+](=O)[O-])cc1; test: p-nitrophenol release, Lineweaver-Burk; assay type: biochemical, Rhizopus microsporus; details: Tris-HCl pH 9, 37 °C, substrate 4-PNN [sic], 4-NPP in materials, apparent Km; remark: listed apart in the source
From the text: as §1

## Lipr27RCL (Rhizopus microsporus var. chinensis; K157N)
[1]
  Km: 290 ± 90 µM
  Vmax: 588 µmol/min/mg
  kcat: 185 ± 18.5 s⁻¹
  kcat/Km: 637000 M⁻¹ s⁻¹

## Lipr27RCL (Rhizopus microsporus var. chinensis; K161T)
[1]
  Km: 290 ± 60 µM
  Vmax: 714 µmol/min/mg
  kcat: 188 ± 13.7 s⁻¹
  kcat/Km: 648000 M⁻¹ s⁻¹

## Lipr27RCL (Rhizopus microsporus var. chinensis; W158I)
[1]
  Km: 450 ± 40 µM
  Vmax: 500 µmol/min/mg
  kcat: 132 ± 19.4 s⁻¹
  kcat/Km: 292000 M⁻¹ s⁻¹

## Lipr27RCL (Rhizopus microsporus var. chinensis; D159T)
[1]
  Km: 380 ± 50 µM
  Vmax: 709 µmol/min/mg
  kcat: 187 ± 16.3 s⁻¹
  kcat/Km: 491000 M⁻¹ s⁻¹

B1: Lipr27RCL (Rhizopus microsporus var. chinensis) (protein)
chain: DTETVGGMTLDLPENPPPIPATSTAPSSDSGEVVTATAAQIKELTNYAGVAATAYCRSVVPGTKWDCKQCLKYVPDGKLIKTFTSLLTDTNGFILRSDAQKTIYVTFRGTNSFRSAITDMVFTFTDYSPVKGAKVHAGFLSSYNQVVKDYFPVVQDQLTAYPDYKVIVTGHSLGGAQALLAGMDLYQREKRLSPKNLSIYTVGCPRVGNNAFAYYVDSTGIPFHRTVHKRDIVPHVPPQAFGYLHPGVESWIKEDPADVQICTSNIETKQCSNSIVPFTSIADHLTYFGINEGSCL
[2]
  Km: 360 ± 60 µM
  Vmax: 714 µmol/min/mg
  kcat: 188 ± 18.2 s⁻¹
  kcat/Km: 522000 M⁻¹ s⁻¹
